Laboratory results taken from publication PMC3410491.

What was measured:
[1] = target: Chara myosin heavy chain (Chara corallina (Chara australis) (endogenous in internodal cells)); test: SEC; partially purified Chara myosin on Superdex 200HR in 50 mM Tris-HCl pH 8.0, 2 mM MgCl2, 1 mM EGTA, 4 mM ATP, 1 mM DTT; peak fraction No. 20 concentrated and run on SDS-PAGE, stained with coomassie brilliant blue; molar ratios roughly estimated
[2] = target: Chara myosin heavy chain (Chara corallina (Chara australis) (endogenous in internodal cells))
[3] = target: Chara myosin heavy chain (Chara corallina (Chara australis) (endogenous in internodal cells)); remark: listed apart in the source

| stoichiometry N (molar ratio to the heavy chain) [1] | sliding velocity of F-actin on Chara myosin in the in vitro motility assay; increase over the standard buffer on adding 0.1 mM Ca++ and 0.1 mg/ml calmodulin; reversible on washing out [2] | sliding velocity of F-actin on Chara myosin in the in vitro motility assay; increase over the standard buffer on adding 0.1 mg/ml calmodulin [2] | actin activated ATPase of column purified Chara myosin; increase on adding both Ca++ and calmodulin [3] | actin activated ATPase of column purified Chara myosin; increase on adding calmodulin [3] | Substance |
| --- | --- | --- | --- | --- | --- |
| 2.5 |  |  |  |  | 18 kDa polypeptide of Chara myosin (natural protein) |
| 0.7 |  |  |  |  | 20 kDa polypeptide of Chara myosin (natural protein) |
|  | 35% | 24% | 91% | 24% | bovine calmodulin (from UniProt P62157 1-149) (natural protein) |
